Reference: patent publication US20040197862A1

What follows are substances tested against HLA-DR2b (DRA, DRB1*1501), soluble, thrombin-cleaved DR/CLIP complex (human).
For HIV p24 (1-22) peptide, the IC50 was 8 µM.
Substance HIV p24 (51-72) peptide has an IC50 of 10.8 µM.
In the case of HIV p24 (111-132) peptide, the IC50 is reported as 10.8 µM.
Substance HIV p24 (161-182) peptide has an IC50 of 9 µM.
With HIV p24 (171-192) peptide the IC50 was 0.9 µM.
HIV p24 (191-212) peptide was tested, and the IC50 was 3 µM.

Each substance was assayed against HLA-DR1 (DRA, DRB1*0101), soluble, thrombin-cleaved DR/CLIP complex (human).
HIV p24 (191-212) peptide showed an IC50 of 1.6 µM.
